Values quoted from earlier work, collected in publication PMC4557399.

Assays:
[1] = target: F1-ATP synthase beta subunit (Bos taurus) (UniProt P00829); assay: bovine retinal endothelial cell binding
[2] = target: F1-ATP synthase beta subunit (UniProt P06576); assay: surface plasmon resonance
Sequence of F1-ATP synthase beta subunit (P06576 48-529): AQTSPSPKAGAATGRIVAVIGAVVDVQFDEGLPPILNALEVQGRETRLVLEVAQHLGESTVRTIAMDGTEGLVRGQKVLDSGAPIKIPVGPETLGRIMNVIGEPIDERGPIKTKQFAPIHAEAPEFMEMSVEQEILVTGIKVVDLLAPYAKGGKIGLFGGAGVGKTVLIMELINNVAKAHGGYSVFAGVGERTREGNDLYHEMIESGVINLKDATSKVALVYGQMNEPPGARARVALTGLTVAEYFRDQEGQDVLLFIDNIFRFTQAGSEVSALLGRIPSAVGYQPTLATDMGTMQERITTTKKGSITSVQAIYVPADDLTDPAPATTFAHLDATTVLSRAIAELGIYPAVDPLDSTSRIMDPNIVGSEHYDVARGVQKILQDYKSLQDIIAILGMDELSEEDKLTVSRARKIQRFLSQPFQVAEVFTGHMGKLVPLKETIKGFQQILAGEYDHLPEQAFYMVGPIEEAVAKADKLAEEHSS

Sequence of PEDF (P36955 20-418): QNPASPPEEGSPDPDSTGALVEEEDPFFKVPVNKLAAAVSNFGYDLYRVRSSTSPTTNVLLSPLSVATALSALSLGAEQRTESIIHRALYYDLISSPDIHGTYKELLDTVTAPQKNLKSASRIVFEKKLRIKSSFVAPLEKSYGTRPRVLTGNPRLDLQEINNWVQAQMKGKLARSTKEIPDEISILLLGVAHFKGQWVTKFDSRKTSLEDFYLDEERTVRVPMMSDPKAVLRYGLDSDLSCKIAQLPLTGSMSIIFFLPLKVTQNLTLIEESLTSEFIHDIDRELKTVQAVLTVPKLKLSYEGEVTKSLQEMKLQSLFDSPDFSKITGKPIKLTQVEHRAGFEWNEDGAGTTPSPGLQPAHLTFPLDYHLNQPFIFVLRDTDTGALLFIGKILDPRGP
Sequence of F1-ATP synthase beta subunit (Bos taurus) (P00829 47-528): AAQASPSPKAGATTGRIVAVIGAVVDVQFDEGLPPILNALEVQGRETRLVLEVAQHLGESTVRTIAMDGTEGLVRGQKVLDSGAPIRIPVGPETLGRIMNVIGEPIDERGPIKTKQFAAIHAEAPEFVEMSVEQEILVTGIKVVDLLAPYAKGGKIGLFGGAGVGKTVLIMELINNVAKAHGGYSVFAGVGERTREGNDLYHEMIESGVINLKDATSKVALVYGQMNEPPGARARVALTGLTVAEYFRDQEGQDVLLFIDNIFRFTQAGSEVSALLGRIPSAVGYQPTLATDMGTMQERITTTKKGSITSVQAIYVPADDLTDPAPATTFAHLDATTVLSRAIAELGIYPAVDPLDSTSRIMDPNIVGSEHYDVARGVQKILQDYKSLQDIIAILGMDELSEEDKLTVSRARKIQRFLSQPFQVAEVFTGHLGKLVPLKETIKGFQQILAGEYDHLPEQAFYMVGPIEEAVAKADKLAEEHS

- Kd [1]: 4 nM
- Kd [2]: 1.51 nM
Substance: PEDF (from UniProt P36955)
